In paper PMC4387718, “In vivo biochemical analyses reveal distinct roles of β-importins and eEF1A in tRNA subcellular traffic” (Genes & Development, 2015):

T1: MORF (His6-HA epitope-ZZ protein A)-tagged Msn5 (S. cerevisiae, UniProt P52918 1-1224)
T1 construct: Msn5, beta-importin family member (yeast exportin-5 homolog), S. cerevisiae; Tagged protein is functional; also called Msn5-M; exportin-5 homolog; source: S. cerevisiae, endogenous promoter on a yeast episomal (YEp) vector, in cell extract
T1 sequence (looked up): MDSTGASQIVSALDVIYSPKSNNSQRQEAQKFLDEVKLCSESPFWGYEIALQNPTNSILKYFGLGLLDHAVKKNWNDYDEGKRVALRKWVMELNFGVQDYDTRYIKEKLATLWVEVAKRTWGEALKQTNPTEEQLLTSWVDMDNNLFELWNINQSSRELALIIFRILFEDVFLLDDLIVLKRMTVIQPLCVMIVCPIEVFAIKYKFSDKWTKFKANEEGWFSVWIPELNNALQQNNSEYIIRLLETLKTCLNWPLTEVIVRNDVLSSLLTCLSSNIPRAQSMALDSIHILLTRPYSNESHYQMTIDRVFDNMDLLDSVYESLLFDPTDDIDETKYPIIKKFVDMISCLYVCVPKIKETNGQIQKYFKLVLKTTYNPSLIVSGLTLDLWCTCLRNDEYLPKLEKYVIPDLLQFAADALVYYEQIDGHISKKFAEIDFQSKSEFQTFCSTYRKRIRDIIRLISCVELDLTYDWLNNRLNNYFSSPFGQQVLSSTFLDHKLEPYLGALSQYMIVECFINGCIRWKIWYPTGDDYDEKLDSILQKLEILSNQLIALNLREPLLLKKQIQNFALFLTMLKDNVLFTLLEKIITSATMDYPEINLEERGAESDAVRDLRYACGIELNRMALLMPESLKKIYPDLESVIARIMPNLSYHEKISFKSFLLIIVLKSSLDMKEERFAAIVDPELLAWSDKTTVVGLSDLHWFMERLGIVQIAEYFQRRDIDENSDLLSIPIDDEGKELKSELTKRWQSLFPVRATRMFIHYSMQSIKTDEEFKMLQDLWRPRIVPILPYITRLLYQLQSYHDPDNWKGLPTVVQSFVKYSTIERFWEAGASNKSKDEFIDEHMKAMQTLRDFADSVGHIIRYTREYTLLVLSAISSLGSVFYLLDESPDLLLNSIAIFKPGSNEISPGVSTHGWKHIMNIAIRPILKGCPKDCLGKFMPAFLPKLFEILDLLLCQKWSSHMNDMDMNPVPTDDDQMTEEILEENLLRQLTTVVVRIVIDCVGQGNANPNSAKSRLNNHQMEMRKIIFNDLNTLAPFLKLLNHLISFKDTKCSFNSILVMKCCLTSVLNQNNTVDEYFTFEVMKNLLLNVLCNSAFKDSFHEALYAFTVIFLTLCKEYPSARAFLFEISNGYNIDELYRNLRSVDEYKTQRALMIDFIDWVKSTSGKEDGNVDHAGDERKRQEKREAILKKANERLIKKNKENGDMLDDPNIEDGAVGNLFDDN


Assays:
[1] = target: T1, MORF (His6-HA epitope-ZZ protein …); test: co-IP; cells with locked RanGTP, formaldehyde cross-linked; extract treated with RNase A prior to purification of the beta-importin on IgG beads; Western blot with anti-eEF1A; details: partners not purified
[2] = target: T1, MORF (His6-HA epitope-ZZ protein …); test: co-IP; cells with RanGTP-locked mutant, without cross-linking; complex immunoprecipitated on beads first and then treated with RNase A (condition R*); Western blot with anti-eEF1A; details: partners not purified

Binder	percent of copurified Tef1/2 relative to mock treatment [1]	percent of copurified Tef1/2 relative to mock treatment [2]
untagged Tef2 (natural protein, S. cerevisiae (endogenous in yeast), UniProt P02994 1-458, looked up, Tef2, yeast translation elongation factor 1 alpha (eEF1A), product of TEF2; Detected with anti-eEF1A; comigrates with Tef1-Myc; also called Tef1/2; eEF1A; source: endogenous, S. cerevisiae cell extract) MGKEKSHINVVVIGHVDSGKSTTTGHLIYKCGGIDKRTIEKFEKEAAELGKGSFKYAWVLDKLKAERERGITIDIALWKFETPKYQVTVIDAPGHRDFIKNMITGTSQADCAILIIAGGVGEFEAGISKDGQTREHALLAFTLGVRQLIVAVNKMDSVKWDESRFQEIVKETSNFIKKVGYNPKTVPFVPISGWNGDNMIEATTNAPWYKGWEKETKAGVVKGKTLLEAIDAIEQPSRPTDKPLRLPLQDVYKIGGIGTVPVGRVETGVIKPGMVVTFAPAGVTTEVKSVEMHHEQLEQGVPGDNVGFNVKNVSVKEIRRGNVCGDAKNDPPKGCASFNATVIVLNHPGQISAGYSPVLDCHTAHIACRFDELLEKNDRRSGKKLEDHPKFLKSGDAALVKFVPSKPMCVEAFSEYPPLGRFAVRDMRQTVAVGVIKSVDKTEKAAKVTKAAQKAAKK	~90%	~40%
endogenously 3Myc-tagged Tef1 (natural protein, S. cerevisiae, UniProt P02994 1-458, looked up, Tef1, yeast translation elongation factor 1 alpha (eEF1A), product of TEF1; Detected with anti-eEF1A and anti-Myc; comigrates with untagged Tef2, so the anti-eEF1A signal called Tef1/2 is of both; also called Tef1-Myc; Tef1/2; source: endogenously tagged, S. cerevisiae cell extract) MGKEKSHINVVVIGHVDSGKSTTTGHLIYKCGGIDKRTIEKFEKEAAELGKGSFKYAWVLDKLKAERERGITIDIALWKFETPKYQVTVIDAPGHRDFIKNMITGTSQADCAILIIAGGVGEFEAGISKDGQTREHALLAFTLGVRQLIVAVNKMDSVKWDESRFQEIVKETSNFIKKVGYNPKTVPFVPISGWNGDNMIEATTNAPWYKGWEKETKAGVVKGKTLLEAIDAIEQPSRPTDKPLRLPLQDVYKIGGIGTVPVGRVETGVIKPGMVVTFAPAGVTTEVKSVEMHHEQLEQGVPGDNVGFNVKNVSVKEIRRGNVCGDAKNDPPKGCASFNATVIVLNHPGQISAGYSPVLDCHTAHIACRFDELLEKNDRRSGKKLEDHPKFLKSGDAALVKFVPSKPMCVEAFSEYPPLGRFAVRDMRQTVAVGVIKSVDKTEKAAKVTKAAQKAAKK	~90%	~40%
